Experimental data taken from patent US7063965 (Regeneron, dated 2006).

Key:
[1] = target: T1, EHK-1 receptorbody (rEHK-1 ecto/hIgG1 Fc) (rat; human, UniProt P54757 27-575); assay: SPR (BIAcore), conditioned medium preincubated with soluble receptorbody before injection over immobilised TIE-2 RB
T1 construct: extracellular domain; also called EHK-1 RB; soluble EHK-1 RB

[2] = target: T2, rat TIE-2 receptorbody (entire extracellular portion of the rat TIE-2 receptor fused to human IgG1 Fc) (rat; human, UniProt A0ABK0L6J5 19-740); assay: SPR (BIAcore), >50x concentrated conditioned medium over immobilised TIE-2 RB
T2 construct: extracellular domain; also called TIE-2 RB; r TIE-2 ecto/h IgG1 Fc; not shown: human immunoglobulin gamma-1 constant region (IgG1 Fc), from the hinge region to the carboxy-terminus
Description: Purified TIE-2 RB was covalently coupled through primary amines to the carboxymethyl dextran layer of a CM5 research grade sensor chip (Pharmacia Biosensor; Piscataway, N.J.). The sensor chip surface was activated using a mixture of N-hydroxysuccinimide (NHS) and N-ethyl-N'-(3-dimethylaminopropyl)carbodiimide (EDC), followed by immobilization of TIE-2 RB (25 µg/mL, pH 4.5) and deactivation of unreacted sites with 1.0 M ethanolamine (pH 8.5). A negative control surface of the EHK-1 receptorbody was prepared in a similar manner.
The running buffer used in the system was HBS (10 mM Hepes, 3.4 mM EDTA, 150 mM NaCl, 0.005% P20 surfactant, pH 7.4). […] Aliquots of 40 µL were injected across the immobilized surface (either TIE-2 or EHK-1) at a flow rate of 5 µL/min and the receptor binding was monitored for 8 min. The binding activity (resonance units, RU) was measured as the difference between a baseline value determined 30 s prior to the sample injection and a measurement taken at 30 s post-injection. […]
The instrument noise level is 20 RU; therefore, any binding activity with a signal above 20 RU may be interpreted as a real interaction with the receptor. […] For the same samples assayed on a EHK-1 RB immobilized surface, the measured activities were less than 35 RU. […]

[3] = target: TIE-2 receptor on ABAE (Adult Bovine Arterial Endothelial) cells (bovine, UniProt Q06807 23-1125); assay: cell-based or functional assay
Chain of TIE-2 receptor on ABAE (Adult Bovine Arterial Endothelial) cells (Q06807 23-1125): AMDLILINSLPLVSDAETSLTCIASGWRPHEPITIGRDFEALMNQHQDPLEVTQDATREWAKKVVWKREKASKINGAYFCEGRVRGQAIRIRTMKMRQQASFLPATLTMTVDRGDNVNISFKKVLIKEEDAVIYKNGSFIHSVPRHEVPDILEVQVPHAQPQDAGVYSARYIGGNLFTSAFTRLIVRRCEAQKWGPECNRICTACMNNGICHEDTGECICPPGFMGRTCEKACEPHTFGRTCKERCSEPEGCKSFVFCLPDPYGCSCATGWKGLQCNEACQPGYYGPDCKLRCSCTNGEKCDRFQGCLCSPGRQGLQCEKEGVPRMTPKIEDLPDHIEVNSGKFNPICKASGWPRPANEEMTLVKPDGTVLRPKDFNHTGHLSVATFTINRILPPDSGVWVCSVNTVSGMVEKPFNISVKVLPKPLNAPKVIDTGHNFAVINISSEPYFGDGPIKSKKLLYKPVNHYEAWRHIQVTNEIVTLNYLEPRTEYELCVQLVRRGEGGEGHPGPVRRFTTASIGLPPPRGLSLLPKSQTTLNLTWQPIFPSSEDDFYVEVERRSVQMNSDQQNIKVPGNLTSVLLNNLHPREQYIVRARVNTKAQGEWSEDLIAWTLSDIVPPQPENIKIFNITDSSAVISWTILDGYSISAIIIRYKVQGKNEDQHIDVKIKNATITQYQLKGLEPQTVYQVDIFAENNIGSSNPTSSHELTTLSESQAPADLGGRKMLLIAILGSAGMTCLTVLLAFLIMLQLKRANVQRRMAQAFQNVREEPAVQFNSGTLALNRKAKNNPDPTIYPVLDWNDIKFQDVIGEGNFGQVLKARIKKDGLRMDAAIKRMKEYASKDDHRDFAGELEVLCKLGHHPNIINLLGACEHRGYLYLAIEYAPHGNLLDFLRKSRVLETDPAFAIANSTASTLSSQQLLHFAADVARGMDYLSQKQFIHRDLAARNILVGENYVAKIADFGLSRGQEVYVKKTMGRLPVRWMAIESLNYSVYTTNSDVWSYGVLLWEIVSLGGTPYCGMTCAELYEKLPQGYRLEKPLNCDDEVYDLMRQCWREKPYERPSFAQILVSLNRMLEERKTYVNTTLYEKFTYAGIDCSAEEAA

T1 sequence (P54757 27-575): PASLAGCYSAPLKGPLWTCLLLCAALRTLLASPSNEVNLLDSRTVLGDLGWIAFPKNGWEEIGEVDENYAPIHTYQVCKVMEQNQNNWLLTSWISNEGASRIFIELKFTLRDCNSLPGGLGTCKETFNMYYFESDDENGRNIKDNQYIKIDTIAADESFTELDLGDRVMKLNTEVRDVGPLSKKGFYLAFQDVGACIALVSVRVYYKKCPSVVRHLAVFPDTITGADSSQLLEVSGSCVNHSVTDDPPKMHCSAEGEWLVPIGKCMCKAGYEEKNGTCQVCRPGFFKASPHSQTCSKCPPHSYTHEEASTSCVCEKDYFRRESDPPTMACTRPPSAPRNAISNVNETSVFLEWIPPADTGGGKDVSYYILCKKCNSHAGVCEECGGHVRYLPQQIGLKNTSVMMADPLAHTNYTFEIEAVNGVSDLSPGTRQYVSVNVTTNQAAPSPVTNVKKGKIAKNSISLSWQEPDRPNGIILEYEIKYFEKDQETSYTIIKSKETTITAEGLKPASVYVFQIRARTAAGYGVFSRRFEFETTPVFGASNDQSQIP

B1: TIE-2 ligand in C2C12-ras conditioned medium (ligand, mouse, UniProt O08538 20-498, looked up)
chain: SNQRRNPENGGRRYNRIQHGQCAYTFILPEHDGNCRESATEQYNTNALQRDAPHVEPDFSSQKLQHLEHVMENYTQWLQKLENYIVENMKSEMAQIQQNAVQNHTATMLEIGTSLLSQTAEQTRKLTDVETQVLNQTSRLEIQLLENSLSTYKLEKQLLQQTNEILKIHEKNSLLEHKILEMEGKHKEELDTLKEEKENLQGLVSRQTFIIQELEKQLSRATNNNSILQKQQLELMDTVHNLISLCTKEGVLLKGGKREEEKPFRDCADVYQAGFNKSGIYTIYFNNMPEPKKVFCNMDVNGGGWTVIQHREDGSLDFQRGWKEYKMGFGNPSGEYWLGNEFIFAITSQRQYMLRIELMDWEGNRAYSQYDRFHIGNEKQNYRLYLKGHTGTAGKQSSLILHGADFSTKDADNDNCMCKCALMLTGGWWFDACGPSNLNGMFYTAGQNHGKLNGIKWHYFKGPSYSLRSTTMMIRPLDF
notes: Unpurified activity in concentrated conditioned medium; also called C2C12-ras 10xCCM
[1]
  binding result: no binding (tested: excess)
[2]
  fold enhancement over background of the TIE-2 specific binding signal: 4 fold
[3]
  TIE-2 tyrosine phosphorylation in ABAE cells (immunoprecipitation and Western blot): 100 fold
